# Data: paper PMC4334984, “In Vitro Selection of a Single-Stranded DNA Molecular Recognition Element against Clostridium difficile Toxin B and Sensitive Detection in Human Fecal Matter”
# Biological target: Toxin B (Clostridium difficile, UniProt P18177 1-2366)
# Assay: SPR (single cycle kinetics, 1:1 model); […] (pH not stated); […]; SPR temperature not stated
# Settings: protein: commercial
# Toxin B, sequence (P18177 whole entry): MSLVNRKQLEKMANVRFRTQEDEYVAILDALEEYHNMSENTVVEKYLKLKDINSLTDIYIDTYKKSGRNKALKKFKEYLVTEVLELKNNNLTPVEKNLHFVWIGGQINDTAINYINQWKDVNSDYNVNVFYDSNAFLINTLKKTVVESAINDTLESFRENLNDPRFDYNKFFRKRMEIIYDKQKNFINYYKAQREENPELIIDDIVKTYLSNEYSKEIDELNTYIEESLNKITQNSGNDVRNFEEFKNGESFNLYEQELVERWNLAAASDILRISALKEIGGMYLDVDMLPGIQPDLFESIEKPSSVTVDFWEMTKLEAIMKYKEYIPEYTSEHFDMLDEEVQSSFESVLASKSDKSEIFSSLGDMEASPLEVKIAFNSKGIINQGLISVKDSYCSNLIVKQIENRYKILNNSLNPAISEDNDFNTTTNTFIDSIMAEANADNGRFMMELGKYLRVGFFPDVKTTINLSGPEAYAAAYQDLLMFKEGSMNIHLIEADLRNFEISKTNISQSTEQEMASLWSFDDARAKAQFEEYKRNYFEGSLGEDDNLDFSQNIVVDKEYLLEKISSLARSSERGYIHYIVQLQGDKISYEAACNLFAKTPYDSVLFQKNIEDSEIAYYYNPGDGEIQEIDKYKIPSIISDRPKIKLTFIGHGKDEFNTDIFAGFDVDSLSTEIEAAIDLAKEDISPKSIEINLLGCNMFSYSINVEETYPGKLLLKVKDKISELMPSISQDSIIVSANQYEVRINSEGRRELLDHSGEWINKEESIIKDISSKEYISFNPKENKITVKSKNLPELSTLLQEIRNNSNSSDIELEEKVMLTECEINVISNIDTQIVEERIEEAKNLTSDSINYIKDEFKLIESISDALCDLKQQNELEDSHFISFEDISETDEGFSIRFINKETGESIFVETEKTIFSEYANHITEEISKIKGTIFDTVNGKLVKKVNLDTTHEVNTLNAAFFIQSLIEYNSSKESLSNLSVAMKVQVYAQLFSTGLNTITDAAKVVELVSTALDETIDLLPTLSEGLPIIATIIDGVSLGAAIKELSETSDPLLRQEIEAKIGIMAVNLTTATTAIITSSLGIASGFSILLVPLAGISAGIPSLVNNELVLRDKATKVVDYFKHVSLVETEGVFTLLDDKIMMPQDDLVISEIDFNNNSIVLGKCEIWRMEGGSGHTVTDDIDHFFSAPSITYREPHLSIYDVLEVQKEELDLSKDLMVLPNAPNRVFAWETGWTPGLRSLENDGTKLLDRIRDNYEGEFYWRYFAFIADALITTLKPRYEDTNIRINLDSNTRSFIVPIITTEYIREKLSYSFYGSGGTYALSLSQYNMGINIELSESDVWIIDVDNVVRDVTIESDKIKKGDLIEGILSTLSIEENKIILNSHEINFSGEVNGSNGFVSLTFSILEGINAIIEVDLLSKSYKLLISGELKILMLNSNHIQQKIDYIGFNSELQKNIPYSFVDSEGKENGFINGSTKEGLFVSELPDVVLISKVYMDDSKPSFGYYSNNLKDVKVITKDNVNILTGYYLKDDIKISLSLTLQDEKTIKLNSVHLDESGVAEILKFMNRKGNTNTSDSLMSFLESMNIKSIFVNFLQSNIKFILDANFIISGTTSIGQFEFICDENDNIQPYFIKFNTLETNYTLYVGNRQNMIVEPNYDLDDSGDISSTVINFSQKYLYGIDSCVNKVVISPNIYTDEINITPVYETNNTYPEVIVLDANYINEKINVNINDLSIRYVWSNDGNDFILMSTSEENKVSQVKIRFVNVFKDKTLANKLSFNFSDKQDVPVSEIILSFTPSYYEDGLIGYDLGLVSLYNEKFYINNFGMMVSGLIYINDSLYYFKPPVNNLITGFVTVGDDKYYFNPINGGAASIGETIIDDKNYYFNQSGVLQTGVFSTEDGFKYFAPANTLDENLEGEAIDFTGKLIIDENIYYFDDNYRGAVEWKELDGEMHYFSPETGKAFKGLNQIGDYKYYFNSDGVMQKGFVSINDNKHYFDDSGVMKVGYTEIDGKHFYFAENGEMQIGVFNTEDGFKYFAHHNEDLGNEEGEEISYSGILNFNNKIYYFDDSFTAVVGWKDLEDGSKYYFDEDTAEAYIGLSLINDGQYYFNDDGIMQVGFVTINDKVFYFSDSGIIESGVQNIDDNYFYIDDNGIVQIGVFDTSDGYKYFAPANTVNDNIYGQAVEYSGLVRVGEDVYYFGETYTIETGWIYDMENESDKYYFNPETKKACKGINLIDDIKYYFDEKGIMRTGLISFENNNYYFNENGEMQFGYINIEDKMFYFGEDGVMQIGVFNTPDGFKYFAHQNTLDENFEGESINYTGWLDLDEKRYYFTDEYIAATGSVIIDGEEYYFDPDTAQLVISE
binder,measurement,value
"R12.69 (SPR) (ssDNA, 5'-amino-C6) DNA: TGTACCGTCTGAGCGATTCGTACCCTCGCTAATGCTGCTTGATGTGTGGCCTCGAATAGCCAGTCAGTGTTAAGGAGTGC",Kd,47.3 ± 13.7 nM
